For 7 sequences, binding results are on record in article PMC9946822.

The target of this data set is MtAHL1 (Medicago truncatula) (UniProt G7JGG2). Put plainly: EMSA. The settings on record: EMSA as in Chen (ref. 37), 10 ng probe and 200 ng protein (titration 0-300 ng), SYBR Gold stain; binding buffer, pH and temperature not stated; protein eluted …. Background: A gel shift assay detects complexes by their altered migration in electrophoresis.
Chain of MtAHL1 (Medicago truncatula) (G7JGG2 entry or part of it): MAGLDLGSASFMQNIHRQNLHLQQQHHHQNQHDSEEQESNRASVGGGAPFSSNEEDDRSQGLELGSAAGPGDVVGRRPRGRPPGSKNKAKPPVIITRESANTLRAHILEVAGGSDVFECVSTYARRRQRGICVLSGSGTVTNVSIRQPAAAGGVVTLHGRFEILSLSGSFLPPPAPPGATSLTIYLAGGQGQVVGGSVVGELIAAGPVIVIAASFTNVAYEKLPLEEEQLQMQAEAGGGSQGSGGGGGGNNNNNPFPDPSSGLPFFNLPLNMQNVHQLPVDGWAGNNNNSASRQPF
For “GAAAGTAATAATTTTGAGACATCTATTCTATGAGCCAAAGAGACAACTACGATACATCAACGTATTAAAGAGACATTTAATAATTATTTTAATTTTCAAAAAGTATTAATTAC (double strand) [probe C]”, the binding entry is “binds”.

On to “GAGATAGGAAAACCAATATTATATTATGTTGATATGAGTGGGTGTGGAATCACACAACGTGAATAAGGTCTCTTGTTTGAGTCTTGTGGTTAAATAAAACGTG (double strand) [probe A]”, for which the binding entry was “binds more weakly”.

For “GTTTAACAACCTTTCATTATTATTTTTTATTTCTTAGCCAGCCTTTCATAATAGAGATAGGAAAACCAATATTATATTATGTTGATATGAGTGGGTGTGGAATCA (double strand) [probe E]”, the binding result was “binds more weakly”.

Turning to “CCCATTGTTTTTCCCCTTTGCGTGAAATAAGTGTAAAATTATTTTATCACTTTATATAGTAAAAAATCAAATGATATGTTTACATCAACAAAACAGTTTTTAATAATTATGTTGTTGTAATTAATAC (double strand) [probe D]”, the binding entry is “binds more weakly”. Next, “GACAACTACGATACATCAACGTATTAAAGAGACATTTAATAATTATTTTAATTTTCAAAAAGTATTAATTACAACAACATAATTATTAAAAACTGTTTTGTTGATGTAAACATATC (double strand) [probe G]”: “binds”; “GTTAAACAATAATGAGCTCTATTTATAAGTAATAATTTTATGATTTGTATAAAAGAAAGTAATAATTTTGAGACATCTATTCTATGAGCCAAAGAGACAAC (double strand) [probe F]”: “binds more weakly”. In the case of “CTTTCTTTTATACAAATCATAAAATTATTACTTATAAATAGAGCTCATTATTGTTTAACAACCTTTCATTATTATTTTTTATTTCTTAGCCAGCCTTTCATAATAGAG (double strand) [probe B]” it was “binds more weakly”.
